Laboratory results taken from the supplement of paper PMC10065799, “High-throughput profiling of sequence recognition by tyrosine kinases and SH2 domains using bacterial peptide display” (eLife, 2023).

Assays:
Hck = Hck (UniProt P08631); test: phosphorylation enrichment, bacterial display (enrichment ratio); higher = better substrate or ligand; peptides without Tyr show the background
Jak2 = Jak2 (UniProt O60674); test: as above
Fes = Fes (UniProt P07332); test: as above
FGFR1 = FGFR1 (UniProt P11362); test: as above
Fer (mouse) = test: as above
EPHB2 = EPHB2 (UniProt P29323); test: as above
Chain of EPHB2 (P29323 whole entry, looked up): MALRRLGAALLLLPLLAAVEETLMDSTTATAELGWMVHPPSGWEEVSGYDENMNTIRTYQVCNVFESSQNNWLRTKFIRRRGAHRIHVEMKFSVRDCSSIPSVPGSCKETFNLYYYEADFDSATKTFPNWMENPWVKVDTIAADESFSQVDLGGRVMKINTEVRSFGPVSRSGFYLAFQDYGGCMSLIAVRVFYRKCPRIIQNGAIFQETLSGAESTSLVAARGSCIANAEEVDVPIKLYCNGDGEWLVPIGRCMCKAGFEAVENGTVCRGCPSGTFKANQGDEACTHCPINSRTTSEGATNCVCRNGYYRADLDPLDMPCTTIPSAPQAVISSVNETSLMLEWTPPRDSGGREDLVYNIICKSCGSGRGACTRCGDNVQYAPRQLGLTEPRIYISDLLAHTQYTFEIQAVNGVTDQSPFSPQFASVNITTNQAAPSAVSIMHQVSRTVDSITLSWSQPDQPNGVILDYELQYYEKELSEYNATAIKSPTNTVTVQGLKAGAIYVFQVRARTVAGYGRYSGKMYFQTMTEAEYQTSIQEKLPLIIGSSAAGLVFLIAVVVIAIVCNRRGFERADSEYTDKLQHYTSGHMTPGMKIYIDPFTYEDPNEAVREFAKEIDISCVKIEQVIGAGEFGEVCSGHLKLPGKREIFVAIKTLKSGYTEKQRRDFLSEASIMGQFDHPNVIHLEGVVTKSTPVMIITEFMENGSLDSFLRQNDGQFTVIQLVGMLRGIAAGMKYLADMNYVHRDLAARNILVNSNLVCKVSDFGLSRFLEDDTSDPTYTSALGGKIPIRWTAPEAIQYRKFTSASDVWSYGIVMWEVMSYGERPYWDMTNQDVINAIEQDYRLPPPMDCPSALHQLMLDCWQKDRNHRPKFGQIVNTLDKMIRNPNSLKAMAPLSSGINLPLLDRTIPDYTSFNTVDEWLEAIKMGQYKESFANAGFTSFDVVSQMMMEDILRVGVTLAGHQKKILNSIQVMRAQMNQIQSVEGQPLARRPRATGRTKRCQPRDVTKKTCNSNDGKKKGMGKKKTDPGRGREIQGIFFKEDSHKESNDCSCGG

EPHB1 = EPHB1 (UniProt P54762); test: as above
Chain of EPHB1 (P54762 whole entry, looked up): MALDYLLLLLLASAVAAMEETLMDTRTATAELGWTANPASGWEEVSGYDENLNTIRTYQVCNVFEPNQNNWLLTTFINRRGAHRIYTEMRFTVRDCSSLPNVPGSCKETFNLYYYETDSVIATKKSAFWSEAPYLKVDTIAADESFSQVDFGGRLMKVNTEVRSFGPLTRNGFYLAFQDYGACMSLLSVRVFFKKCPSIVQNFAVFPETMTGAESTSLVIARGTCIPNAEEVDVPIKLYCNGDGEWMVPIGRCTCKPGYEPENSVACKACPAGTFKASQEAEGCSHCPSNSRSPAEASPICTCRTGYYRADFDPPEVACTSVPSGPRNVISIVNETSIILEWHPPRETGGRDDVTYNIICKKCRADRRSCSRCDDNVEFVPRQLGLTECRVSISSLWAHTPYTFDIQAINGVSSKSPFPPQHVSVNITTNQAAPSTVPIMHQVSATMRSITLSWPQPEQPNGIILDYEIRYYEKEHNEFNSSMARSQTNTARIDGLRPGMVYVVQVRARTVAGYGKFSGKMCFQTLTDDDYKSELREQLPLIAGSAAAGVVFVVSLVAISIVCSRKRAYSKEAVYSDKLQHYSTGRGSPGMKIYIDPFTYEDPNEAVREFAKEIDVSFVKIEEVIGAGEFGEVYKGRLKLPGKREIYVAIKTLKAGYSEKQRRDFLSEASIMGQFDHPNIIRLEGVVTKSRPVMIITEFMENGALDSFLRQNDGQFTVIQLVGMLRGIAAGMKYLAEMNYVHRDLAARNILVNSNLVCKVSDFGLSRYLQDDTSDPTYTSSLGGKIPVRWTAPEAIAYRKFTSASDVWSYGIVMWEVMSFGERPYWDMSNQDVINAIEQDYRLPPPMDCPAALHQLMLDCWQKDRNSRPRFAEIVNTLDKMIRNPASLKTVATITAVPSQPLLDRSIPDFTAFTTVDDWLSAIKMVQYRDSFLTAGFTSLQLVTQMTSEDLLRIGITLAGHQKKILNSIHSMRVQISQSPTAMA

MERTK = MERTK (UniProt Q12866); test: as above
AncSZ = test: as above
FGFR3 = FGFR3 (UniProt P22607); test: as above
Chain of FGFR3 (P22607 whole entry, looked up): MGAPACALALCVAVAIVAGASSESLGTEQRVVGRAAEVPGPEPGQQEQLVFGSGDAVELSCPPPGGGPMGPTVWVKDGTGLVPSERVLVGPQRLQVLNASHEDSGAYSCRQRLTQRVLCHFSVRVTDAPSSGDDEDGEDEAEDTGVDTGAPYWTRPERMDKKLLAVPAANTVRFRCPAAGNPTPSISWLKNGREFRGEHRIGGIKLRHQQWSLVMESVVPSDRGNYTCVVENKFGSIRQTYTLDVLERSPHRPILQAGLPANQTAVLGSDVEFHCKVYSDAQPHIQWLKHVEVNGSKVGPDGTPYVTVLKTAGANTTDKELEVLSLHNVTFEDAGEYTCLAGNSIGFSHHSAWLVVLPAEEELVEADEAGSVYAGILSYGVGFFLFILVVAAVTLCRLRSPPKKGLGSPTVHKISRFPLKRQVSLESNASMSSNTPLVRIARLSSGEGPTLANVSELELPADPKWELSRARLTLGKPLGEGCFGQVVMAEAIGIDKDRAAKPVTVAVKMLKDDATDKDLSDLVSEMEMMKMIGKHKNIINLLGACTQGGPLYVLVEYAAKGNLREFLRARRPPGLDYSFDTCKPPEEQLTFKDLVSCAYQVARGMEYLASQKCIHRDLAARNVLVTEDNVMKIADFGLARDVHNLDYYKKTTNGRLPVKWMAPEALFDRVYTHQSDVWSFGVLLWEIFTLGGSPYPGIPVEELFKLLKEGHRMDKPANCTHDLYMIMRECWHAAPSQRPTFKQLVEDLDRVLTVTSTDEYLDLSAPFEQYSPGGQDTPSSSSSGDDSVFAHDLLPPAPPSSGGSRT

c-Src = test: as above
c-Abl (mouse) = test: as above
Fyn = Fyn (UniProt P06241); test: as above
Grb2 SH2 = Grb2 SH2 (UniProt P62993); test: SH2 binding enrichment of the phosphorylated peptide, bacterial display (enrichment ratio); higher = better substrate or ligand; peptides without Tyr show the background
c-Src SH2 = test: as above
SHP2-C SH2 = test: as above
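Wherever SH2 binding enrichment of the phosphorylated peptide, bacterial display is given: peptide library displayed on the E. coli surface as eCPX fusions, selected cells deep-sequenced, score is each peptide's frequency after selection divided by its frequency in the input.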
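Wherever phosphorylation enrichment, bacterial display is given: 11-residue human phosphosite peptides and single-mutation variants displayed on the E. coli surface, counted by deep sequencing, each peptide's frequency after selection divided by its frequency in the unselected input library; frequency after pTyr selection over input frequency; kinase dosed for 20-30% of maximal phosphorylation in three min.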

Chain of Jak2 (O60674 whole entry, looked up): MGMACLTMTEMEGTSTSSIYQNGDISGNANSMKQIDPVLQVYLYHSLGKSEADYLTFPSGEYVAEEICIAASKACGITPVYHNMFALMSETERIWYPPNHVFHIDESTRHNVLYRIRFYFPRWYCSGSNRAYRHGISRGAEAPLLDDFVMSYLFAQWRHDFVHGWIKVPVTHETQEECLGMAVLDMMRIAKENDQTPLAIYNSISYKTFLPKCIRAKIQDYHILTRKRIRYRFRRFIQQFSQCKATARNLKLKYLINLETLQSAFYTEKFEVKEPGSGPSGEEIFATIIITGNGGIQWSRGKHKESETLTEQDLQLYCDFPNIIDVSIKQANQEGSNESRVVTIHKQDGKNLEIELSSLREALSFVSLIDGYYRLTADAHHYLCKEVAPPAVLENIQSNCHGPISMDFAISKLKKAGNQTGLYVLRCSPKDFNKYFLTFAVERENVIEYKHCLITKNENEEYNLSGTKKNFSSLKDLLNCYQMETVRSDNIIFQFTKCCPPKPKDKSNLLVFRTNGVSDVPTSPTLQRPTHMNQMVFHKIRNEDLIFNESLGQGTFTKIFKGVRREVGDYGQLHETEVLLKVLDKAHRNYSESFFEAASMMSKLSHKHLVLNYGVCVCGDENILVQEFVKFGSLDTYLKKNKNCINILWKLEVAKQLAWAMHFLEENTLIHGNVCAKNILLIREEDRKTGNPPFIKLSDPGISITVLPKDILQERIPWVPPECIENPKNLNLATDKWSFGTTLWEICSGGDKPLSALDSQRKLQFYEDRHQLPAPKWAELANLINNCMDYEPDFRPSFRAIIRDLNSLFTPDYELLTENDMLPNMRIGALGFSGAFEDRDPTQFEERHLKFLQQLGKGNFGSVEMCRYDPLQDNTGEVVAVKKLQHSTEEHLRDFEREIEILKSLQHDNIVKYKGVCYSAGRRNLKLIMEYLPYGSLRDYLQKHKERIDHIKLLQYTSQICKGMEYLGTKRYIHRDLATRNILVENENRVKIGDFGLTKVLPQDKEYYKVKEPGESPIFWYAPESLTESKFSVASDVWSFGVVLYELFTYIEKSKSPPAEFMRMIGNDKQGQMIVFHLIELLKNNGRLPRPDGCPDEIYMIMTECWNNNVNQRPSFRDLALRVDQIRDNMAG
Chain of Fes (P07332 whole entry, looked up): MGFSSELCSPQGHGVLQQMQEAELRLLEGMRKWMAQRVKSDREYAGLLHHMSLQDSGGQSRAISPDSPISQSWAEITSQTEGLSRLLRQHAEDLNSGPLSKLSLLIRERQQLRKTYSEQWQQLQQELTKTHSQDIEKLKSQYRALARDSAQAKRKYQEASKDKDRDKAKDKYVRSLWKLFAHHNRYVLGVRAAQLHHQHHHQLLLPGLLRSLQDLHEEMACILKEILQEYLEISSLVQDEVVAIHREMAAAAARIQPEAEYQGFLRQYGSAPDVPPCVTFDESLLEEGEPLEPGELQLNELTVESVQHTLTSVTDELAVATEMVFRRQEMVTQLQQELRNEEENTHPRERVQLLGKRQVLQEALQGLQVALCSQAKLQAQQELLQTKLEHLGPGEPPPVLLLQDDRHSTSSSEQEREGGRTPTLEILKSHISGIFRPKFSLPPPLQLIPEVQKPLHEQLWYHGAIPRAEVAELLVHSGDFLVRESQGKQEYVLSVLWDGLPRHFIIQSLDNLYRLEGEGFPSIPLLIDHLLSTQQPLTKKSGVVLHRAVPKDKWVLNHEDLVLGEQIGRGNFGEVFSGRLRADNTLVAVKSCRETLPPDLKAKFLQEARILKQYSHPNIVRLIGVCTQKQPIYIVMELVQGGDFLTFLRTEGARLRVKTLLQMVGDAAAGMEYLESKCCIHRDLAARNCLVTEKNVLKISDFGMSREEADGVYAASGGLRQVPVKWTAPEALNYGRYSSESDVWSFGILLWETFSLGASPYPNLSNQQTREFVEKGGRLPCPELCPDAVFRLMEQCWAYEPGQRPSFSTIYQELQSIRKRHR

Row | SH2 binding enrichment (Grb2 SH2) | SH2 binding enrichment (c-Src SH2) | SH2 binding enrichment (SHP2-C SH2) | Sequence | phosphorylation enrichment (Hck) | phosphorylation enrichment (Jak2) | phosphorylation enrichment (Fes) | phosphorylation enrichment (FGFR1) | phosphorylation enrichment (Fer (mouse)) | phosphorylation enrichment (EPHB2) | phosphorylation enrichment (EPHB1) | phosphorylation enrichment (MERTK) | phosphorylation enrichment (AncSZ) | phosphorylation enrichment (FGFR3) | phosphorylation enrichment (c-Src) | phosphorylation enrichment (c-Abl (mouse)) | phosphorylation enrichment (Fyn)
1 | 0.828 | 0.521 | 0.607 | AASHRYDLGGL [QPRT_Y162] | 0.35 | 0.521 | 0.56 | 0.416 | 0.336 | 0.375 | 0.356 | 0.327 | 0.491 | 0.4 | 0.391 | 0.432 | 0.352
2 | 0.788 | 0.534 | 0.636 | AAVDTVCRHNY [HLA-DRB1_Y107_Y107V] | 0.64 | 0.739 | 0.842 | 0.612 | 0.417 | 0.429 | 0.463 | 0.511 | 0.645 | 0.673 | 0.473 | 0.795 | 0.494
3 | 0.898 | 0.562 | 0.675 | ACCLLYCGDVV [TUBA4A_Y319_R320C] | 1.71 | 1.09 | 1.3 | 1.13 | 3.7 | 7.84 | 9.94 | 4.54 | 1.54 | 1.23 | 4.33 | 1.29 | 1.1
4 | 0.798 | 0.403 | 0.733 | ACEVLYNIVFM [NCF2_Y125_A128V] | 2.95 | 1.59 | 1.93 | 1.8 | 8.66 | 1.16 | 1.17 | 3.19 | 2.4 | 2.03 | 2.18 | 1.84 | 1.55
5 | 0.92 | 0.528 | 1.54 | ADKSVYLMGLN [MYH7_Y386_A385V] | 0.481 | 0.51 | 0.769 | 0.444 | 0.413 | 0.409 | 0.407 | 0.379 | 0.666 | 0.523 | 0.678 | 0.338 | 0.583
6 | 0.826 | 0.454 | 0.696 | AEVDTYCRHNF [HLA-DRB1_Y107_A103E_YF] | 0.6 | 0.719 | 0.935 | 0.532 | 0.813 | 0.556 | 0.594 | 0.473 | 0.988 | 0.61 | 0.509 | 0.618 | 0.567
7 | 0.8 | 0.524 | 0.586 | AFPVSYSSSSA [RET_Y687_G691S] | 0.463 | 0.527 | 0.663 | 0.38 | 0.425 | 0.425 | 0.511 | 0.536 | 0.598 | 0.685 | 0.415 | 0.455 | 0.461
8 | 0.937 | 0.44 | 0.968 | AIDDKYSRREE [SART1_Y685] | 0.465 | 0.794 | 0.939 | 0.488 | 0.434 | 0.511 | 0.431 | 0.439 | 0.806 | 0.578 | 0.426 | 0.471 | 0.51
9 | 0.85 | 0.478 | 0.668 | ANAFIYVVQLP [L1CAM_Y420_YF] | 0.693 | 1.02 | 1.32 | 0.538 | 0.559 | 0.743 | 0.701 | 0.909 | 1.19 | 0.855 | 0.678 | 0.724 | 0.631
10 | 0.749 | 0.528 | 0.514 | ANSSFHSTRSA [NUMA1_Y1836_Y1836H] | 0.551 | 0.552 | 1.04 | 0.551 | 0.425 | 0.51 | 0.436 | 0.496 | 0.597 | 0.599 | 0.602 | 0.616 | 0.555
11 | 0.789 | 0.479 | 0.602 | ARGTRYRYVSQ [UCN3_Y95] | 0.469 | 0.437 | 0.637 | 0.42 | 0.493 | 0.461 | 0.39 | 0.529 | 0.534 | 0.483 | 0.572 | 0.608 | 0.492
12 | 1.18 | 2.68 | 1.19 | ARLEFYENEKK [IRS1_Y47_YF] | 0.451 | 0.887 | 0.995 | 0.58 | 0.406 | 0.597 | 0.623 | 0.462 | 1.1 | 0.604 | 0.411 | 0.492 | 0.439
13 | 0.594 | 0.49 | 0.766 | ARLEYCENEKK [IRS1_Y47_Y47C] | 0.421 | 0.687 | 0.815 | 0.786 | 0.464 | 0.475 | 0.552 | 0.449 | 0.795 | 0.702 | 0.486 | 0.486 | 0.567
14 | 0.893 | 0.751 | 1.46 | ARSHIYTFSSC [MEFV_Y741_A744S] | 0.61 | 0.714 | 0.917 | 0.547 | 0.497 | 0.665 | 0.519 | 0.62 | 0.867 | 0.681 | 1.15 | 0.578 | 1.3
15 | 0.877 | 0.494 | 1.11 | ARTNEYKIIRT [INA_Y87] | 0.502 | 0.571 | 0.469 | 0.455 | 0.512 | 0.425 | 0.468 | 0.436 | 0.525 | 0.452 | 0.569 | 0.843 | 0.504
16 | 0.89 | 0.51 | 0.689 | ASNNPYFRDQA [RPGRIP1_Y846] | 0.449 | 0.547 | 0.694 | 0.443 | 0.434 | 0.357 | 0.396 | 0.416 | 0.605 | 0.656 | 0.512 | 0.537 | 0.5
17 | 0.838 | 0.619 | 0.764 | ATARPYSPYII [LRP5_Y1528_R1529S] | 0.456 | 0.668 | 0.731 | 0.351 | 6.92 | 0.192 | 0.473 | 0.375 | 0.646 | 0.727 | 1.02 | 0.544 | 0.934
18 | 0.872 | 0.642 | 0.661 | ATATDYHTTSH [SLC4A1_Y46] | 0.397 | 0.387 | 0.482 | 0.408 | 0.328 | 0.348 | 0.31 | 0.438 | 0.473 | 0.434 | 0.334 | 0.416 | 0.294
19 | 1.42 | 1 | 1.4 | AVIADYMFWLG [SPATA16_Y290_M286V] | 1.34 | 3.42 | 1.3 | 13.1 | 2 | 12.4 | 6.08 | 2.51 | 2.25 | 10.7 | 1.17 | 1.17 | 0.852
20 |  | 0.139 | 0.29 | TDECEYDELIV [TGM1_Y136_Y134C] | 1.8 | 0.788 | 1.13 | 0.57 | 1.61 | 0.842 | 1.09 | 0.604 | 1.41 | 0.865 | 0.529 | 0.742 | 2.06

Continued, sequence first:

Row | Sequence | SH2 binding enrichment (Grb2 SH2) | SH2 binding enrichment (c-Src SH2) | SH2 binding enrichment (SHP2-C SH2) | phosphorylation enrichment (Hck) | phosphorylation enrichment (Jak2) | phosphorylation enrichment (Fes) | phosphorylation enrichment (FGFR1) | phosphorylation enrichment (Fer (mouse)) | phosphorylation enrichment (EPHB2) | phosphorylation enrichment (EPHB1) | phosphorylation enrichment (MERTK) | phosphorylation enrichment (AncSZ) | phosphorylation enrichment (FGFR3) | phosphorylation enrichment (c-Src) | phosphorylation enrichment (c-Abl (mouse)) | phosphorylation enrichment (Fyn)
21 | AAVDEYLEFRR [FAM221A_Y17_YF] | 0.926 | 0.559 | 0.496 | 1.47 | 0.756 | 0.963 | 0.601 | 0.421 | 0.517 | 0.395 | 0.409 | 1.14 | 0.531 | 1.28 | 0.722 | 0.949
22 | AGIKAYQSCLQ [ADGRA2_Y377_T375K] | 0.767 | 0.57 | 0.64 | 0.537 | 0.841 | 0.983 | 0.453 | 0.424 | 0.55 | 0.583 | 0.558 | 0.786 | 0.572 | 0.55 | 0.85 | 0.383
23 | AGQEDYDRLRP [CDC42_Y64] | 0.825 | 0.609 | 0.698 | 0.785 | 0.839 | 1.07 | 0.576 | 0.508 | 0.654 | 0.598 | 0.471 | 1.13 | 0.69 | 0.452 | 0.689 | 0.546
24 | AHADEYGAEAL [HBA1_Y25_G23D] | 0.781 | 0.393 | 0.66 | 0.511 | 0.96 | 1.1 | 0.398 | 0.412 | 0.403 | 0.538 | 0.536 | 0.97 | 0.564 | 0.46 | 0.791 | 0.458
25 | AIIGIYNLRDD [CDH23_Y2949_I2950N] | 1.14 | 0.805 | 0.951 | 5.28 | 0.795 | 1 | 0.478 | 0.45 | 0.437 | 0.481 | 0.573 | 0.821 | 0.599 | 5.84 | 0.691 | 6.82
26 | AKAEIYEMRPL [COX10_Y97] | 0.895 | 0.573 | 0.623 | 12.1 | 0.77 | 0.912 | 0.552 | 6.76 | 6.54 | 11 | 8.29 | 1.08 | 0.672 | 9.82 | 0.801 | 11.4
27 | ALTDNYMYVVI [HAGH_Y61_L64V] | 0.783 | 0.607 | 0.767 | 1.52 | 2.65 | 1.42 | 11.1 | 7.79 | 13.1 | 12.9 | 4.21 | 1.92 | 9.14 | 1.12 | 0.952 | 1.04
28 | ALTRSYIREKV [CYP2C8_Y243] | 0.655 | 0.433 | 0.576 | 0.4 | 0.445 | 0.596 | 0.423 | 0.43 | 0.316 | 0.388 | 0.369 | 0.524 | 0.367 | 0.419 | 0.417 | 0.422
29 | AMCVRYDGVEV [ADAMTSL2_Y594] | 0.805 | 0.859 | 0.682 | 0.644 | 1 | 1.26 | 0.7 | 0.791 | 0.735 | 0.764 | 0.49 | 1.19 | 0.781 | 0.542 | 0.817 | 0.583
30 | APAHKYHGGGG [HBD_Y146_L142P] | 0.709 | 0.538 | 0.66 | 0.294 | 0.35 | 0.502 | 0.37 | 0.329 | 0.419 | 0.288 | 0.549 | 0.778 | 0.423 | 0.537 | 0.616 | 0.328
31 | AQAGEYGAEAL [HBA1_Y25_H21Q] | 0.931 | 0.608 | 0.842 | 0.514 | 0.767 | 0.96 | 0.557 | 0.465 | 0.545 | 0.609 | 0.327 | 0.965 | 0.629 | 0.33 | 0.491 | 0.507
32 | ASGKYYAMKIL [AKT3_Y174] | 0.957 | 1.43 | 0.941 | 0.434 | 0.662 | 0.657 | 0.74 | 0.434 | 0.407 | 0.313 | 0.591 | 0.664 | 0.623 | 0.396 | 0.582 | 0.446
33 | AVAFVYFKSIG [ADGRL4_Y301_YF] | 0.928 | 0.628 | 0.686 | 0.626 | 1.15 | 1.6 | 0.798 | 0.728 | 0.797 | 0.911 | 0.471 | 1.38 | 1.01 | 0.426 | 0.938 | 0.643
